One data set addresses hsRAD51-WT (Homo sapiens, UniProt Q06609 1-339). The experiment in a line: fluorescence polarization; 1 mM ATP, 1 mM MgCl2, 50 uM CaCl2; apparent Kd; 25 mM Tris-HCl pH 7.8, 1 mM MgCl2, 1 mM ATP, 1 mM DTT, 50 mM NaCl (printed NaCl2), 50 uM CaCl2, 100 ug/ml BSA, 37 C, 30 min; 2.4 nM oligo, RAD51 10-1000 nM. To be noted: protein: recombinant; tags: C-terminal His6; label: 5' Alexa Fluor 488 (Methods; legend says fluorescein); single strand. (In fluorescence polarisation assays a small probe gives low polarisation when free and higher when bound to something large.)

A further data set has as its target hsRAD51-II3A (Homo sapiens, UniProt Q06609 1-339, R130A;R303A;K313A). The experiment in a line: fluorescence polarization; 1 mM ATP, 1 mM MgCl2, 50 uM CaCl2; apparent Kd; modest binding defect; 25 mM Tris-HCl pH 7.8, 1 mM MgCl2, 1 mM ATP, 1 mM DTT, 50 mM NaCl (printed NaCl2), 50 uM CaCl2, 100 ug/ml BSA, 37 C, 30 min; 2.4 nM oligo, RAD51 10-1000 nM. Particulars: protein: recombinant; tags: C-terminal His6; label: 5' Alexa Fluor 488 (Methods; legend says fluorescein); single strand.

hsRAD51-II3A, sequence (Q06609 whole entry R130A/R303A/K313A): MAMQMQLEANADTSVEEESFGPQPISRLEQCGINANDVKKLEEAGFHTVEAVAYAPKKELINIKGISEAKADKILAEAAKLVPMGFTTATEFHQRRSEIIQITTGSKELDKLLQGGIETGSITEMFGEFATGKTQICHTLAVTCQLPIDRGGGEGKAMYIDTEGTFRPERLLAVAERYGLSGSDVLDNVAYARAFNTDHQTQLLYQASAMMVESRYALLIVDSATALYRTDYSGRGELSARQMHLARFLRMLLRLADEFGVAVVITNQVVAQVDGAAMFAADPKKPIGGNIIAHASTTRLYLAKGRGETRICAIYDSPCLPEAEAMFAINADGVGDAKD
hsRAD51-WT, sequence (Q06609 whole entry): as the sequence (Q06609 whole entry R130A/R303A/K313A) above, with A130R, A303R, A313K counted along it

B1: 84-mer ssDNA (ssDNA)
DNA: GGTAGCGGTTGGGTGAGTGGTGGGGAGGGTCGGGAGGTGGCGTAGAAACATGATAGGAATGTGAATGAATGAAGTACAAGTAAA
B1: the results for the Kd with hsRAD51-WT and with hsRAD51-II3A were 57 ± 1 nM and 132 ± 5 nM, respectively.
